Laboratory results reported in article PMC4764983.

Biological target: histone deacetylase 1 (HDAC1), endogenous mouse (mouse (endogenous in C3H10T1/2 and STO)) (UniProt O09106)
Chain of UniProt O09106 (O09106 whole entry): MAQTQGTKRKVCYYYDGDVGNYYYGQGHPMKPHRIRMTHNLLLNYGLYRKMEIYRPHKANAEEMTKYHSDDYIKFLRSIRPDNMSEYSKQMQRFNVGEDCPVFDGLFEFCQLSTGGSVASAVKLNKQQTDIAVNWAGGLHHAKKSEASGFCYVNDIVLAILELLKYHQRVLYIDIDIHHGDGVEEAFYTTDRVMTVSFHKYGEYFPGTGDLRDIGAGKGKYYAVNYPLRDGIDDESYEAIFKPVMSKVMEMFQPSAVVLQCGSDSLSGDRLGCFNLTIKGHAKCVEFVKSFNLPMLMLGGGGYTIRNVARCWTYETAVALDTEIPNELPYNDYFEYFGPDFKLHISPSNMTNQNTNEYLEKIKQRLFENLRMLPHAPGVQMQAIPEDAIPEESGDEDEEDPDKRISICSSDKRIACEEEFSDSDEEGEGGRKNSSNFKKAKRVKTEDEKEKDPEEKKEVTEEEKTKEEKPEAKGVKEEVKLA

## V5-tagged SS18-SSX1 fusion protein
  fold increase in AXIN2 message (Q-PCR) after treatment with the HDAC inhibitor TSA in C3H10T1/2^SS18-SSX1-V5 cells, compared to a 6 fold increase in C3H10T1/2^pLIVc: 3 fold
